Experimental data as given in the DeepSol protein solubility set.

experiment: soluble on expression in E. coli; label from the status in PepcDB or PDB records

Sequence | soluble on expression in E. coli
MSLQRLNVEFRSEGVALRGWLYLPEARAERPAIVMTHGFSGVKEQYLDRYAEVFAAAGFVVLLYDHPNFGDSDGEPRQEIDPVMQRRGYRDAITWLGAQARVDASRIGIWGTSYSGGHVLEVAALDRRVKCVVAQVPTVSGHASALRRTRAEQLPALLASFDADRQRRFEGLPPALLPAVAASPDEPCAMAGADAHRFFTDSAALAPNWCNRVTLRSAELARENEPGIHIGRISPTPLLMIVADRDLLTPTDLCLEAYQRALPPKRLLMLAGGHFTPYIEHFDATSQAAADWFVRHLGEGGEQPATVVEEGGSHHHHHH | soluble
MKDLSSIVAKFNTQGTITEIKPLGAGLINDTYKVNTQEADAPDYVLQRINHAIFQNVEMLQSNIAAVTGHIRKKLTEAGEADIDRKVLSFLATEEGKTYWFDGESYWRVMVFIPRAKTYETVNPEYSNYAGEAFGNFQAMLADIPETLGETIPDFHNMEFRLKQLRDAVAANAAGRVAEVQYYLDEIEKRADEMCKAERLFREGKLPKRVCHCDTKVNNMMFDEDGKVLCVIDLDTVMPSFIFSDYGDFLRTGANTGDEDDKDLNRVNFNMEIFKAFTKGYLKGAKSFLTPIEIENLPYAAALFPYMQCVRFLADYINGDTYYKIKYPEHNLVRTKAQFKLLQSVEEHTPEMVAFINECLVNGLEHHHHHH | soluble
AHHHHHHGSKLTHVDEKGVKMVEVGHKKDMYRRAIAKGRIKLKPETIKLIREGKIEKGNVLAAAQIAGILAVKKTFDIIPLCHPIPLTGVDITFDFGEDYIEVTCEVRAIYKTGVEMEALTGVSVALLTIWDMVKAVEKDEKGQYPYTKIEEIRVVEKIKEERS | soluble
MTEFDNLTWLHGKPQGSGLLKANPEDFVVVEDLGFTPDGEGEHILLRILKNGCNTRFVADALAKFLKIHAREVSFAGQKDKHAVTEQWLCARVPGKEMPDFSAFQLEGCKVLEYARHKRKLRLGALKGNAFTLVLREISDRRDVETRLQAIRDGGVPNYFGAQRFGIGGSNLQGALRWAQSNAPVRDRNKRSFWLSAARSALFNQIVHQRLKKPDFNQVVDGDALQLAGRGSWFVATSEELPELQRRVDEKELMITASLPGSGEWGTQRAALAFEQDAIAQETVLQSLLLREKVEASRRAMLLYPQQLSWNWWDDVTVELRFWLPAGSFATSVVRELINTMGDYAHIAELEHHHHHH | soluble
MSLEEDIQKQIIAAKEEAHDETIWGKPANDIITGIGNNSGVRPQRAIWEMVQNARDVSLNGKADIVFERQHDCFIFQHNGISFTNNTLEALILQTSSKVRNDSVQVGQYGTGFLTTHKLGLKFTLSSSVQLLENEQLFHHFSNFLIDRSSTDKKQMRDSLKKQIKITEEWARNPTIVSGPSSLTTFRYIQEHEVEKMNTKEAFKASSALAPYVIALNPCVNSISFVDNVEDCKELYIRKSTEIINTCDFYNVVKVTIDKCETESCDFTVLMLQSKETVEESGEPKVIVILPIKELESKSVAFALSKDVPNLFIYLPLLGTEQWGLNFIFHSPLFTCDKDSRDSLRFVGNGQNNDVDAERNKGIIQLADVIVSHYITENLSNIQDCMYLAKVAFNLHNSDEALANYYKSLQSSWVKKYESFPFVITKNGNIITRQAKVFDKELFDACLENKDLLTAVYNVTVQIYGTDYLPLETNMLFWSETLLQWYEAESFNPHLIHLSDIVEYIDKNNITTIGEENLWCIDNYIANSKQIGLFTKYKLLPTKNGELRVREDLLNPIIHDESLLKILDSLLPNDVASFIHTRFVLFEDVKIEEYDHNKVKESMRLLVSELSDLQKGHEIYRTNILAGLDVDSNKYEQNKLSDNHINALMGFYAYIVNIGGEAFQYKMIHLLADFYNIDLKSGEAYIKEIYDWRTVAPLLIKDALFRFTLMDSEGHHHHHH | not soluble
MSLDDLLKEVLKDKRLLEVLRHLKRANVDYGKSIMLNTKIPLTEVLDVLDKLESLGLIERVTGATLKNTEAKFKLSQEVHKHHTYYRLTRDGDHLLRRLDEKDIIDAYAEIVKDDEVGLKLLYYAEELHSDHALTYSKLLRKPLEEITPKIEELERMGLMEEKNSKVIKFRERRAKPEGHHHHHH | not soluble
MGSSHHHHHHSSGLVPRGSHMEELQKSIGHKPEPTDEEWELIKTVTEAHVATNAQGSHWKQKRKFLPEDIGQAPIVNAPEGGKVDLEAFSHFTKIITPAITRVVDFAKKLPMFCELPCEDQIILLKGCCMEIMSLRAAVRYDPESETLTLNGEMAVTRGQLKNGGLGVVSDAIFDLGMSLSSFNLDDTEVALLQAVLLMSSDRPGLACVERIEKYQDSFLLAFEHYINYRKHHVTHFWPKLLMKVTDLRMIGACHASRFLHMKVECPTELFPPLFLEVFED | soluble
